According to PMC5078831:

Biological target: Coxsackie B–Adenovirus Receptor (CAR), human, of 293 cells (human (endogenous in 293)) (UniProt P78310)
Assay: ELISA; virus attachment assay: cells on 96-well plates, biotinylated AdV5 (MOI=100 virus particles per cell) for 90 min on ice (4 °C) or at 37 °C, washed, fixed with 3 % paraformaldehyde, streptavidin-HRP; anti-CAR antibodies blocked 95–98 % of the signal (data not shown)

Sequence of UniProt P78310 (P78310 20-365): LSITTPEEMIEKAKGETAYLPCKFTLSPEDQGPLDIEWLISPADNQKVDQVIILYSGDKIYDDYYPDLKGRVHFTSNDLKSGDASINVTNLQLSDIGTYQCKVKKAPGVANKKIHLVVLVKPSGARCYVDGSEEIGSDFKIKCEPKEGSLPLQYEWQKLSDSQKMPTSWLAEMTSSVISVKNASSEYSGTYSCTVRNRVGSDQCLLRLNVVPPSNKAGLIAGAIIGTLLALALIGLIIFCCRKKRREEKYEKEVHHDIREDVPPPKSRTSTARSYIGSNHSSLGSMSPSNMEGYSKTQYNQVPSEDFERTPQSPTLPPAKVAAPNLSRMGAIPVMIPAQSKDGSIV

Substance: biotinylated AdV5-GFP virus particles (complex)
- percent of the virus attached to cells: > 60%
